Reference: patent US20100216969A1 (BIONANOPHOTNICS A S, published 2010)
Bridge positions count the residues as written; N and C are the ends. Ends that are not written are not given here.

Biological target: T1, Lysozyme (Sigma L-7651) (UniProt P00698 19-147)
T1 construct: Used as 2 uM solution in 25 mM Tris pH 7.0; also called model protein
Assay: TIRF flow chamber, tryptophan fluorescence (excitation 295 nm, emission 350 nm); lysozyme loaded over the peptide-coated quartz slide with the light off, then Tween20/PBS and buffer rinses
Excerpt: A TIRF system (BioElectroSpec, Inc., Harrisburg, Pa.) coupled with a fluorescence spectrophotometer (PTI QM-2000 from Photon Technology Int., Lawrenceville, N.J.) with a 75W Xenon arc source was used. The PTI instrument excitation and emission slits were set at 6 nm. The flow chamber was comprised by a “sandwich” consisting of a TIRF quartz prism, a TIRF quartz slide (with the sample surface), a 10 μm polyureathane gasket (comprising the chamber thickness), and a back block with holes to channel the solution through the flow chamber. In this setup, the excitation light travels through the prism and slide, hits the interface between slide and solution, leading to total internal reflection at the interface. The reflected beam generates an evanescent electromagnetic field in the centre of the TIRF slide—this area of the TIRF slide serves thus as the sensor surface. Only fluorophores that are present at the surface and in close proximity of the surface (within the evanescent field) are excited and fluoresce.

T1 sequence (P00698 19-147 limits assumed): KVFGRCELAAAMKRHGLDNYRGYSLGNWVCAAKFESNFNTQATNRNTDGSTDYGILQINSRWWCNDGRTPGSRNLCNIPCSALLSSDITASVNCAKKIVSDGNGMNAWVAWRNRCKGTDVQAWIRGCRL

- binding result: no binding (tested: 2 µM)
B1: synthetic disulphide-peptide KAMHAWGCGGGC-NH2 (SEQ ID NO 9) (peptide)
peptide: KAMHAWGCGGGC-NH2
modifications: disulfide 8-12; also: attached to aldehyde quartz surface via lysine amine and/or N-terminal amine (Schiff bond)
notes: Loaded at 10 uM onto an aldehyde-coated TIRF quartz slide; It stood in the assay as the surface coating; also called peptide linker
